Laboratory results as given in PMC11944484, “Metronidazole Activation by a Deeply Entangled Dimeric Malic Enzyme in Entamoeba histolytica” (Pathogens, 2025).

Columns and labels:
[1] = target: T1, EhME (Entamoeba histolytica malic enzyme; rEhME) (Entamoeba histolytica, UniProt Q9NH04); test: NADPH formation at […] nm, inhibition kinetics; assay type: biochemical
T1 construct: gene CL6EHI_044970; full-length ORF in pQE30, N-terminal His6 tag (cleavage not mentioned), expressed in E. coli M15; Ni-NTA and Superdex 200; apparent 53 kDa; entangled homodimer with composite active site
T1 sequence (Q9NH04 1-487): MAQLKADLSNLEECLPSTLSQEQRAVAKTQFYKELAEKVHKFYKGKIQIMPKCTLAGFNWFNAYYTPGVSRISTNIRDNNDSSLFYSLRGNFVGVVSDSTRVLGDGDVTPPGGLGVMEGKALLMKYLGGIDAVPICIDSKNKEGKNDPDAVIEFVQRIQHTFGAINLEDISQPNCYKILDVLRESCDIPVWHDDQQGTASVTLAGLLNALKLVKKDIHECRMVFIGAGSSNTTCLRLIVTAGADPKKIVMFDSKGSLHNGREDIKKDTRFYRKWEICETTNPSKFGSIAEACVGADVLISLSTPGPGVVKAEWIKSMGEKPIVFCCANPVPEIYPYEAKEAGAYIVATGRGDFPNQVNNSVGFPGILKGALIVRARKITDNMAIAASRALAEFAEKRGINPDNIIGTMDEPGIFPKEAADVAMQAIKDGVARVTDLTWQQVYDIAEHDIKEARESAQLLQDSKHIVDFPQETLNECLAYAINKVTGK

purified protein [2] = substrate: NC(=O)c1ccc[n+]([C@@H]2O[C@H](COP(=O)(O)OP(=O)(O)OC[C@H]3O[C@@H](n4cnc5c(N)ncnc54)[C@H](OP(=O)(O)O)[C@@H]3O)[C@@H](O)[C@H]2O)c1; test: purified protein; assay type: biochemical, Entamoeba histolytica; conditions: L-malate at saturation, NADP+ varied 0.1-0.5 mM, 5 mM MnCl2, 50 mM Tris-Cl pH 7.4, 30 °C, apparent Km, varied: cofactor
purified protein [3] = substrate: O=C(O)C[C@H](O)C(=O)O; test: purified protein; assay type: biochemical, Entamoeba histolytica; conditions: NADP+ at saturation, L-malate varied 5-15 mM, 5 mM MnCl2, 50 mM Tris-Cl pH 7.4, 30 °C, apparent Km
[4] = target: the molecule itself; test: SEC; gel filtration chromatography of purified EhME; conditions of the analysis not told apart from the purification step (Superdex 200, 10 mM Tris, 150 mM NaCl, 10 mM DTT, pH 8.0)

Molecule | Ki [1] | Km (purified protein [2]) | kcat (purified protein [2]) | Km (purified protein [3]) | kcat (purified protein [3]) | stoichiometry N [4]
Nc1ncnc2c1ncn2[C@@H]1O[C@H](COP(=O)(O)OP(=O)(O)OP(=O)(O)O)[C@@H](O)[C@H]1O [ATP] | 650 µM | – | – | – | – | –
Entamoeba histolytica malic enzyme (enzyme, UniProt Q9NH04 1-487, looked up, Entamoeba histolytica malic enzyme, gene PCR-amplified from genomic DNA with primers from the ATG start codon to the stop codon; cloned into pQE30; Homodimer with two interlocked (knotted) protomers; also called EhME; rEhME; source: E. coli M15 (pQE30), purified (Ni-NTA, Superdex 200 gel exclusion chromatography)) MAQLKADLSNLEECLPSTLSQEQRAVAKTQFYKELAEKVHKFYKGKIQIMPKCTLAGFNWFNAYYTPGVSRISTNIRDNNDSSLFYSLRGNFVGVVSDSTRVLGDGDVTPPGGLGVMEGKALLMKYLGGIDAVPICIDSKNKEGKNDPDAVIEFVQRIQHTFGAINLEDISQPNCYKILDVLRESCDIPVWHDDQQGTASVTLAGLLNALKLVKKDIHECRMVFIGAGSSNTTCLRLIVTAGADPKKIVMFDSKGSLHNGREDIKKDTRFYRKWEICETTNPSKFGSIAEACVGADVLISLSTPGPGVVKAEWIKSMGEKPIVFCCANPVPEIYPYEAKEAGAYIVATGRGDFPNQVNNSVGFPGILKGALIVRARKITDNMAIAASRALAEFAEKRGINPDNIIGTMDEPGIFPKEAADVAMQAIKDGVARVTDLTWQQVYDIAEHDIKEARESAQLLQDSKHIVDFPQETLNECLAYAINKVTGK | – | 46.67 ± 6.0 µM | 14.57 s⁻¹ | 570 ± 80 µM | 41.7 s⁻¹ | 2
